Measured values as given in patent US20230059489A1.
Substitutions are numbered along the chain they refer to. Values belong to the binder of their own block, whether it stands above or below them.

Molecular target: human FLT3 (hFLT3) (human) (UniProt P36888)
Experiment: SPR, Table 6, scFv format; set-up and antigen species not described

human FLT3 (hFLT3) (human), sequence (P36888 27-543 limits assumed): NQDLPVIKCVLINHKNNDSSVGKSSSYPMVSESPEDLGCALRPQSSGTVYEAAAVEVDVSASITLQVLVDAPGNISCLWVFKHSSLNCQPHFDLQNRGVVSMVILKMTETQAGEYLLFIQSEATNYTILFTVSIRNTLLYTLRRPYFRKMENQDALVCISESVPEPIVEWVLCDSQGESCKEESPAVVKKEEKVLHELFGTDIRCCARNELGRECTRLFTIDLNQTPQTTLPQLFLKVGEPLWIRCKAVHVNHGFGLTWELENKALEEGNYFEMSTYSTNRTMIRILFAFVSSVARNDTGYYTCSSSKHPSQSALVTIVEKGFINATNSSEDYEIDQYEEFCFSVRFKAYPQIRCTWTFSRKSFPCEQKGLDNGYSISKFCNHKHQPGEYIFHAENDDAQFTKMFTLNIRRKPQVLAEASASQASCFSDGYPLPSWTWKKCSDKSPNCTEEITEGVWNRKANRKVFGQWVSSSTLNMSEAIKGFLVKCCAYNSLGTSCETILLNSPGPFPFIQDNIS

B1: P1B4 (scFv format) (scFv, part only; not given: linker, domain order, tags, V domains shown, not shown: another chain or arm of the molecule; small tags and cut ends)
VH: QVQLVQSGAEVKKPGSSVKVSCKASGGVFSRYALSWVRQAPGQGLEWMGGIIPMLGFANYAQKFQGRVTITADESTSTAYMELSSLRSEDTAVYYCATLDFGALDYWGQGTLVTVSS
VL: EIVLTQSPGTLSLSPGERATLSCRASQSVPNEQLAWYQQKPGQAPRLLIYDASSRATGIPDRFSGSGSGTDFTLTISRLEPEDFAVYYCQQYGSPPLTFGQGTKVEIK
Kd: 27.3 nM | koff: 0.00327 s⁻¹ | kon: 120000 M⁻¹ s⁻¹ | t1/2: 3.5 min

B2: P3E10 (scFv format) (scFv, part only; not given: linker, domain order, tags, V domains shown, not shown: another chain or arm of the molecule; small tags and cut ends)
VH: QVQLVQSGAEVKKPGSSVKVSCKASGGTFSSYAIQWVRQAPGQGLEWMGGIVGSWGLANYAQKFQGRVTITTDKSTSTAYMELSSLRSEDTAVYYCATSAFGELASWGQGTLVTVSS
VL: B1 VL with N31S, E32S, P95S
Kd: 65.1 nM | koff: 0.0112 s⁻¹ | kon: 172000 M⁻¹ s⁻¹ | t1/2: 1 min

B3: P1A5 (scFv format) (scFv, part only; not given: linker, domain order, tags, V domains shown, not shown: another chain or arm of the molecule; small tags and cut ends)
VH: B1 VH
VL: EIVLTQSPGTLSLSPGERATLSCRASQAVDSSDLAWYQQKPGQAPRLLIYDAYTRPSGIPDRFSGSGSGTDFTLTISRLEPEDFAVYYCQQYGSSPLTFGGGTKLEIK
Kd: 1.1 nM | koff: 0.000292 s⁻¹ | kon: 259000 M⁻¹ s⁻¹ | t1/2: 40 min

B5: P5F7 (scFv format) (scFv, from a related filing, part only)
scFv: EVQLLESGGGLVQPGGSLRLSCAASGFTFSSYAMNWVRQAPGKGLEWVSSISGGGRSTYYADSVKGRFTISRDNSKNTLYLQMNSLRAEDTAVYYCARDLSPSDVGWGYGFDIWGQGTLVTVSSGGGGSGGGGSGGGGSEIVLTQSPATLSLSPGERATLSCRASQSVSSNLAWYQQKPGQAPRLLIYDTFTRATGIPARFSGSGSGTDFTLTISRLEPEDFAVYYCQQYGSSPPTFGQGTRLEIK
Kd: 1 nM | koff: 0.000197 s⁻¹ | kon: 189000 M⁻¹ s⁻¹ | t1/2: 59 min

B7: P5A3 (scFv format) (scFv, part only; not given: linker, domain order, tags, V domains shown, not shown: another chain or arm of the molecule; small tags and cut ends)
VH: QVQLVQSGAEVKKPGSSVKVSCKASGGTFSSYYIGWVRQAPGQGLEWMGGIIPWFGTANYAQKFQGRVTITADKSTNTAYMELSSLRSEDTAVYYCAADHHDSPSGYTSGGFDVWGQGTLVTVSS
VL: QSALTQPASVSGSPGQSITISCTGTSSDVGGYNYVSWYQQHPGKAPKLMIYEVSKRPSGVPDRFSGSKSGNTASLTVSGLQAEDEADYYCSSYAGSNTVVFGGGTKLTVL
Kd: 216 nM | koff: 0.0175 s⁻¹ | kon: 81000 M⁻¹ s⁻¹ | t1/2: 0.7 min

B9: P4C7 (scFv format) (scFv, part only; not given: linker, domain order, tags, V domains shown, not shown: another chain or arm of the molecule; small tags and cut ends)
VH: QVQLVQSGAEVKKPGSSVKVSCKASGGTFSSYTISWVRQAPGQGLEWMGGIIPAFGIANYAQKFQGRVTITADKSTSTAYMELSSLRSEDTAVYYCAKGGSYSLDYFDIWGQGTLVTVSS
VL: EIVLTQSPGTLSLSPGERATLSCRASQYVSASLLAWYQQKPGQAPRLLIYGASTRATGIPDRFSGSGSGTDFTLTISRLEPEDFAVYYCQQYARSSTFGQGTKVEIK
Kd: 13.6 nM | koff: 0.00164 s⁻¹ | kon: 121000 M⁻¹ s⁻¹ | t1/2: 7 min

The remaining binders from weak to strong by Kd, led by results:

Kd: 126 nM | koff: 0.0286 s⁻¹ | kon: 226000 M⁻¹ s⁻¹ | t1/2: 0.4 min
B6: P9F1 (scFv format) (scFv, part only; not given: linker, domain order, tags, V domains shown, not shown: another chain or arm of the molecule; small tags and cut ends)
VH: EVQLLESGGGLVQPGGSLRLSCAASGFIFSSFAMSWVRQAPGKGLEWVSDISGSGASTYYADSVKGRFTISRDNSKNTLYLQMNSLRAEDTAVYYCASASGGSGSYWPYMDPWGQGTLVTVSS
VL: QSVLTQPPSASGTPGQRVTISCSGSGSNIGSNYVYWYQQLPGTAPKLLIYRNNQRPSGVPDRFSGSKSGTSASLAISGLRSEDEADYYCAAWDGSLSRPVFGTGTKLTVL

Kd: 58.3 nM | koff: 0.00933 s⁻¹ | kon: 160000 M⁻¹ s⁻¹ | t1/2: 1 min
B8: P4H11 (scFv format) (scFv, part only; not given: linker, domain order, tags, V domains shown, not shown: another chain or arm of the molecule; small tags and cut ends)
VH: EVQLLESGGGLVQPGGSLRLSCAASGFTFSSYAMNWVRQAPGKGLEWVSSISGGGRSTYYADSVKGRFTISRDNSKNTLYLQMNSLRAEDTAVYYCARDLSPSDVGWGYGFDIWGQGTLVTVSS
VL: B9 VL with Y28S, A31N, S32T, L33Y, G51D, A52T, T54S, A93G, R94S, S96L

Kd: 9.1 nM | koff: 0.00187 s⁻¹ | kon: 205000 M⁻¹ s⁻¹ | t1/2: 6.2 min
B4: P7H3 (scFv format) (scFv, part only; not given: linker, domain order, tags, V domains shown, not shown: another chain or arm of the molecule; small tags and cut ends)
VH: EVQLLESGGGLVQPGGSLRLSCAASGFTFSSYAMHWVRQAPGKGLEWVSAISGSGGSTYYADSVKGRFTISRDNSKNTLYLQMNSLRAEDTAVYYCARGTRWWWGDAFDHWGQGTLVTVSS
VL: QSVLTQPPSVSVAPGKTARITCGGNNIGSKSVHWYQQKPGQAPVLVIYYDSDRPSGIPERFSGSNSGNTATLTISRVEAGDEADYYCQVWDSSTAWVFGGGTKLTVL
